Assay results as given in paper PMC2718843.

Columns and labels:
[1] = target: gp120 from CC1/85 cl.7 (HIV-1)
[2] = target: gp120 from CC1/85 cl.6 (HIV-1)
[3] = target: gp120 from CC101.19 cl.7 (HIV-1)
[4] = target: gp120 from D1/85.16 cl.23 (HIV-1)

sCD4 (domain or fragment) was tested, and the IC50 for inhibition of replication of the clonal virus in PBMC (p24 antigen); inhibits gp120-CD4 binding [1] was 0.1 µg/mL, the IC50 for inhibition of replication of the clonal virus in PBMC (p24 antigen); inhibits gp120-CD4 binding [2] was > 25 µg/mL and the IC50 for inhibition of replication of the clonal virus in PBMC (p24 antigen); inhibits gp120-CD4 binding [3] was 0.1 µg/mL. It also gave an IC50 for inhibition of replication of the clonal virus in PBMC (p24 antigen); inhibits gp120-CD4 binding [4] of 10 µg/mL.
